Assay results published in US7056679 (ANTYRA, dated 2006).

T1: DGI-2 polypeptide (UniProt Q15004 1-111, limits assumed)
T1 construct: Soluble recombinant protein coated at 500 ng/well; vector tag of pIVEX2.3-MCS not described for this construct; also called KIAA0101
T1 sequence (looked up): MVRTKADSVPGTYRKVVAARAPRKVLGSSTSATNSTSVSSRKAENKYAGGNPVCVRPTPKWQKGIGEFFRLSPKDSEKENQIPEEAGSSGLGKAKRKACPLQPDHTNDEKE


Biological target: T2, antibody raised against ETAG
T2 construct: Coated at 500 ng/well; also called E-tag antibody
Assay: phage ELISA
Experimental: (§1) For analysis of individual target binders, colonies were picked and phage prepared as described above using helper phage, M13KO7. Ninety-six-well microtiter plates were coated with 500 ng/well of specific target protein, 500 ng/well lactate dehydrogenase (LDH) irrelevant or non-specific target, 500 ng/well of positive control antibody raised against ETAG, and negative control of non-fat milk powder-PBS 2% at 4° C. overnight. Plates were then blocked with 350 microliters/well PBS containing 2% non-fat milk for 1 hr at room temperature. One hundred microliters per well of phage from isolated clones were added and plates were incubated at room temperature for 2 hr after centrifuging samples for 20 minutes at 3500 rpm at 4° C. The phage solution was then removed, and the wells were washed three times with PBS at room temperature. Antibody raised against M13 conjugated to horseradish peroxidase (Pharmacia) was diluted 1:3000 in PBS-Tween and added to each well (100 µl/well). Incubation was for 1 hr at room temperature, followed by washing with PBS-(0.5%) Tween 3 times as described. Color was developed by addition of ABTS solution (100 µl/well; Boehringer, Indianapolis, Ind.). Plates were analyzed at 405 nm. A clone was considered "positive" if the $A405$ of the well was $\geq$2-fold over background.

Row | Binder | ETAG (OD)
1 | SVSGGGVFGTGGRVRHQVSGAAAGAPVPYPDPLEPRP [DGI-2-20F-PP-C5] | 33.9
2 | VWRDWVNGTVGLRNREKPGVAAAGAPVPYPDPLEPRP [DGI-2-20R-3-A5] | 14.9
3 | VGQSSGDARPLANLFVFPFVAAAGAPVPYPDPLEPRP [DGI-2-20F-PP-F12] | 47.6
4 | VQSGRDLGGLLRGGTGTEASPAAAGAPVPYPDPLEPRP [DGI-2-20F-PP-D3] | 15
5 | VWAAWVEGSLLSPRQEPVRDAAAGAPVPYPDPLEPRP [DGI-2-20R-4-G4] | 13.6
6 | RISVGQCGTSRCGGGRRGGGAAAGAPVPYPDPLEPRP [DGI-2-20F-PP-D1] | 3
7 | CGGWGAMWEAWVQGLNGAGCAAAGAPVPYPDPLEPRP [DGI-2-20R-3-D4] | 18.9
8 | RQRSGGRWVVDRVTRVASTSPAAAGAPVPYPDPLEPRP [DGI-2-20F-PP-B12] | 1.9
9 | FRVALLSVSAGPCEGSGNTAAAGAPVPYPDPLEPRP [DGI-2-20F-PP-H7] | 3.7
10 | LLLPVRWRDAQPRSLLMEWIAAAGAPVPYPDPLEPRP [DGI-2-20F-PP-F8] | 7.6
11 | GWSDFVATGSWSGQVSAALNAAAGAPVPYPDPLEPRP [DGI-2-20R-4-F120] | 16.5
12 | SRELGKWGRLWQDWSSGNFSAAAGAPVPYPDPLEPRP [DGI-2-20R-3-C11] | 18.9
13 | GHGAGDWAAELFVCPVAFLTGFAWRAAAGAPVPYPDPLEPRP [DGI-2-20R-4-H2] | 12.9
14 | GASRVVDVGWRFWGKLWQRSAAAGAPVPYPDPLEPRP [DGI-2-20F-PP-G5] | 27.7
15 | RDHRYVGWGRATFRHDQSVWAAAGAPVPYPDPLEPRP [DGI-2-20F-PP-H1] | 1.4
16 | FGRDGDGIQRRQGGFSWVGDRAAAGAPVPYPDPLEPRP [DGI-2-20F-PP-E2] | 11.6
17 | SVTISTSCRTGCPAGYLRRDAAAGAPVPYPDPLEPRP [DGI-2-20F-PP-D2] | 30.8

Biological target: T3, lactate dehydrogenase (LDH)
T3 construct: Coated at 500 ng/well as non-specific target; also called LDH polypeptide
Assay: phage ELISA
Experimental: as §1

Row | Binder | LDH (OD)
18 | SVSGGGVFGTGGRVRHQVSGAAAGAPVPYPDPLEPRP [DGI-2-20F-PP-C5] | 0.9
19 | VWRDWVNGTVGLRNREKPGVAAAGAPVPYPDPLEPRP [DGI-2-20R-3-A5] | 1.1
20 | VGQSSGDARPLANLFVFPFVAAAGAPVPYPDPLEPRP [DGI-2-20F-PP-F12] | 0.9
21 | VQSGRDLGGLLRGGTGTEASPAAAGAPVPYPDPLEPRP [DGI-2-20F-PP-D3] | 0.9
22 | VWAAWVEGSLLSPRQEPVRDAAAGAPVPYPDPLEPRP [DGI-2-20R-4-G4] | 1
23 | RISVGQCGTSRCGGGRRGGGAAAGAPVPYPDPLEPRP [DGI-2-20F-PP-D1] | 1.1
24 | CGGWGAMWEAWVQGLNGAGCAAAGAPVPYPDPLEPRP [DGI-2-20R-3-D4] | 1.1
25 | RQRSGGRWVVDRVTRVASTSPAAAGAPVPYPDPLEPRP [DGI-2-20F-PP-B12] | 1.1
26 | FRVALLSVSAGPCEGSGNTAAAGAPVPYPDPLEPRP [DGI-2-20F-PP-H7] | 0.8
27 | LLLPVRWRDAQPRSLLMEWIAAAGAPVPYPDPLEPRP [DGI-2-20F-PP-F8] | 1.1
28 | GWSDFVATGSWSGQVSAALNAAAGAPVPYPDPLEPRP [DGI-2-20R-4-F120] | 1.1
29 | SRELGKWGRLWQDWSSGNFSAAAGAPVPYPDPLEPRP [DGI-2-20R-3-C11] | 1
30 | GHGAGDWAAELFVCPVAFLTGFAWRAAAGAPVPYPDPLEPRP [DGI-2-20R-4-H2] | 1.1
31 | GASRVVDVGWRFWGKLWQRSAAAGAPVPYPDPLEPRP [DGI-2-20F-PP-G5] | 1.2
32 | RDHRYVGWGRATFRHDQSVWAAAGAPVPYPDPLEPRP [DGI-2-20F-PP-H1] | 1.2
33 | FGRDGDGIQRRQGGFSWVGDRAAAGAPVPYPDPLEPRP [DGI-2-20F-PP-E2] | 0.7
34 | SVTISTSCRTGCPAGYLRRDAAAGAPVPYPDPLEPRP [DGI-2-20F-PP-D2] | 0.7

Biological target: T1, DGI-2 polypeptide
Assay: phage ELISA
Experimental: as §1

Row | Binder | DGI-2 (OD) | DGI-2/LDH [ratio]
35 | SVSGGGVFGTGGRVRHQVSGAAAGAPVPYPDPLEPRP [DGI-2-20F-PP-C5] | 2.2 | 2.4
36 | VWRDWVNGTVGLRNREKPGVAAAGAPVPYPDPLEPRP [DGI-2-20R-3-A5] | 10.9 | 9.8
37 | VGQSSGDARPLANLFVFPFVAAAGAPVPYPDPLEPRP [DGI-2-20F-PP-F12] | 2.1 | 2.3
38 | VQSGRDLGGLLRGGTGTEASPAAAGAPVPYPDPLEPRP [DGI-2-20F-PP-D3] | 2.2 | 2.4
39 | VWAAWVEGSLLSPRQEPVRDAAAGAPVPYPDPLEPRP [DGI-2-20R-4-G4] | 10.2 | 9.8
40 | RISVGQCGTSRCGGGRRGGGAAAGAPVPYPDPLEPRP [DGI-2-20F-PP-D1] | 2 | 1.9
41 | CGGWGAMWEAWVQGLNGAGCAAAGAPVPYPDPLEPRP [DGI-2-20R-3-D4] | 8.7 | 8.1
42 | RQRSGGRWVVDRVTRVASTSPAAAGAPVPYPDPLEPRP [DGI-2-20F-PP-B12] | 2.3 | 2.2
43 | FRVALLSVSAGPCEGSGNTAAAGAPVPYPDPLEPRP [DGI-2-20F-PP-H7] | 1.8 | 2.1
44 | LLLPVRWRDAQPRSLLMEWIAAAGAPVPYPDPLEPRP [DGI-2-20F-PP-F8] | 2 | 1.9
45 | GWSDFVATGSWSGQVSAALNAAAGAPVPYPDPLEPRP [DGI-2-20R-4-F120] | 13.6 | 12.2
46 | SRELGKWGRLWQDWSSGNFSAAAGAPVPYPDPLEPRP [DGI-2-20R-3-C11] | 8.6 | 8.3
47 | GHGAGDWAAELFVCPVAFLTGFAWRAAAGAPVPYPDPLEPRP [DGI-2-20R-4-H2] | 9.9 | 9.2
48 | GASRVVDVGWRFWGKLWQRSAAAGAPVPYPDPLEPRP [DGI-2-20F-PP-G5] | 2.4 | 2
49 | RDHRYVGWGRATFRHDQSVWAAAGAPVPYPDPLEPRP [DGI-2-20F-PP-H1] | 1.7 | 1.4
50 | FGRDGDGIQRRQGGFSWVGDRAAAGAPVPYPDPLEPRP [DGI-2-20F-PP-E2] | 1.7 | 2.4
51 | SVTISTSCRTGCPAGYLRRDAAAGAPVPYPDPLEPRP [DGI-2-20F-PP-D2] | 2.2 | 3.1
